Measurements as given in the DeepSol protein solubility set.

assay: soluble on expression in E. coli; label from the status in PepcDB or PDB records

Sequence	soluble on expression in E. coli
MKPVYLAMNYFGPHEHSIIDFSKLESTPIFLISGDTGAGKSTIFDAMTFALFGSTTNDGTDGRAAKEMRSQFAPADQPTSVTFYFEQGNQLYKIARSPEQYLAKKKGSGLTKKNSTAKLAVVDHVGGVEIESIATKPADVGPEITTILNLTADQFKKIILLPQNDFSEFLKSKTTDKEKILKKIFGTQLYSDFTAELKAEYQTASKTGDQFVADLRVALASATWNDEEQAQLQAVPDNQKIPLLRAFVTTRQSAFDQAQQT	not soluble
MKQGLQLRLSQQLAMTPQLQQAIRLLQLSTLELQQELQQALENNPLLEQTDLHDEIDTQQPQDNDPLDTADALEQKEMPEELPLDASWDEIYTAGTPSGPSGDYIDDELPVYQGETTQSLQDYLMWQVELTPFSDTDRAIATSIVDAVDDTGYLTVSLDEIRESMGDVEVDLDEVEAVLKRIQRFDPVGVAAKDLRDCLLIQLSQFDKSTPWLEEARLIICDHLDLLANHDFRTLMRVTRLKEEVLKEAVNLIQSLDPRPGQSIQTGEPEYVIPDVLVRKHNGRWTVELNSDSIPRLQINQHYAAMCNSARNDADSQFIRSNLQDAKWLIKSLESRNDTLLRVSRCIVEQQQAFFEQGEEYMKPMVLADIAQAVEMHESTISRVTTQKYLHSPRGIFELKYFFSSHVNTEGGGEASSTAIRALVKKLIAAENPAKPLSDSKLTSLLSEQGIMVARRTVAKYRESLSIPPSNQRKQLV	not soluble
MKQRDSLDEKRRQLTYFTSCNAGTCQCRGFRPVLNHEDETVERRATRAERENDFAPMTRDLETLGSEEIIECRTCGHSISFHAEPLKYLSQEDLDTYTDQISDLQTCCSELSEIDPSHESLQTLYITMQILLKSLRTLTPVDVPFIGKPNFEPESLSPYILVKKFIASRPVDNAEKQRLAEIGTLFLTEMNHWKLEGFQSLADKLNVPLEQGKYRMMYVRMDYYVNMPAKYVSFKQFQTVDIFGEKFTTTFCNYLINVLNTGNYTPFGLSESDLEENSEDLITFATDLRRYLETEDPQSTSTTNRRKDSISTEDVILKYVKRKKPTDHSESSSPRELSTSPVEEPRRRKKEPSSSAKKSPETEESMALLRSLIRAIKFEGDLDAMEPKTKVEFEALNTEVSRGLSALQEEESGLIEFRVIGNDLDPFQHHEQLVHLVELQNLFGAQLPKMPKEYVTRLIFDSRHQNMVILKRDMGVIGGICFRTFPSRGFVEIVFCAITAMEQVKGYGTHLMNHCKDYMIKNKIYHMLTYADEFAIGYFTKQGFSEKLEINDTVYQGWIKEYEGATLMGCHLHPQISYTKFPDFSKGIQALHCGYKSENGAESRGKVFGGLEHLFRESSPQLLELRKVPGTDSLKMHKKSCYHLDERDDSLDSKIGAILKKLTADKNAWPFASPVDVKEVPEYYDHIKHPIDFKTMQEKLKRKAYTHQHLFIADLNRLFQNCYVFNGAEAVYYKYGYKLNELALKLLKTSFPESSWYPELPEQKPLC	not soluble
MKQSIRHNKIIELVNQLGYVSTEELVAQLAVSSQTIRRDLNELAEKNLLRRHHGGAGMPSNNENSDYSERKKFFSAQKNIIAQQVAEMIPNGSSLFLDIGTTSEAVAYALLSHQHLRIVTNNLNAAHILMQKDDFQITIAGGDLRADGGIIGEATVNFISEFRLDFGILGISAIDQDGSMLDYDYHEVQVKRALMQSSRQVILVTDHSKFNRRAIVRLGNISEVNYLFTDLPLPLELQQYLAPTNVTVYICNNLEHHHHHH	soluble
MKRCLDKGKTMDALKHALQMLNEMRTAELSPKFYYRLYMDSMHELQCLEVNLVQEYAQEPAKLGNLYECVQYASAIIPRLYLLVTIGGVFIKCGLGSRKEILKDLVEMCRGVQHPLRGLFLRNYLMQCTRSVLPDFPETEEMLVAHNDNLSKGTPKLKPRDGTVDDTIDFVLINFAEMNKLWVRMQHQGPSKEKEKREKDRMELRILVGTNLVRLAQLEALTEEMYVKDVLPSILEQIVSCRDPISQEYLMECVIQVFADDFHLATLTEFLNACGQLQQDVNIKILLIALVDRLALYTTSYNEGQPAPTKMQLFEIFSEQATTLIKNRPDMPLDDIVALHVSLVSLAVKCYPDRQDYANMTFQGLRQVIEEKGVTDIEAFGKVGRELTKLLNIPIDEYKNVLRLSQLPEYIKVMNYFDYRGQCNIASYMIQNMLEEETVFRNQDDVDSAFSLISSLLKDQEKQSSDSHETEEFADEQNLVARLLHLIRADDVDSQFLLLNSARKTLGEGGRHRLRYTLPPIIFELYRLVLQFSDMKDEDDKWDAKIRKMFVCAMGTIGALVSTAELAELPMKLYLNGAITADRVPFEDNHTVVYEFVSKALSILEDDVVDSRDRVRCLHLTVGTLLKTTHLPEENWQPLANQTVLAAAKMFKKPDQVRSLVTVAALYWHGQTLETNGEKMKNGKKVVDILRKAAKIARECLEPLVQQQLFIQLLSAYTYYYEDNCSEVNVDHIEELIARTQDNAVQLDVSAEADSLEKQLGEAIRRLQLAKLDVAAAQATTIRSEPELPQPPS	soluble
MKRFFALVHKDEDSAFGVQFPDFEGLFSAADEEENLIINATEALQLYCEDMDTVPVPLKFEEVIQQKAVKKALSEGAFLIQVPFIENDSEVVRTNISIERGLLRAIDNCAQERGLTRSAFLATAARHELNI	not soluble
MKRFFLKTILAAFCVYVPAILNTAYACTRIVYQGPNGTIITARSMDWKGEIPANLWIFPRGIERNGEAGSTSVKWKSTYGSVITSSWDIASSDGMNEKGLVGNLLWLVESTYPKFVKDKDKPGLAVSLWLQYVLDNFATVSEAVAFLEKEPFVVASSHIPGTAIFATVHLSISDATGDNAIFEYIGGKLVIHHDRSYVTMTNSPVFDEQLAINTYWKNIPGTVMLPGTNRAADRFVRASYYIDAIPKTDNTRVALPSVFSVIRNCSVPLGISSEAEPNISSTRWRTVSDQKNLVYYFDNVLNPNVVWVEFSKIDFSEKAKVKKLTLANNENYSGEASMNFKAALPFTFAGLD	not soluble
MKRKPAVAGYFYPERKDELYSLLSSFAIPEQHVSGTIIGAVVPHAGIIYSGRTAMYSYRAIEKSAVRDFVIIGPNHRPLTPYASLYPEGEWSTPLGDALINDRMAEALYRDSNYIVKDEESHLMEHSVEVQIPFLQYLFGDGFRFVPVILGDQEIDVARDIGEAIMKIEDPFIFIASSDFTHYEDAKRVEKKDMDLISAILTLDLDKFYSVLEKENVTACGYGAIAALMYYTKKRGGRMIFLNHSNSGDVTGDYSEVVGYASLVSVIPLEHHHHHH	soluble
MKRLILPIACGICTVTSDAQTDKQPHPNVIFIYADDLGYKDLSCTGSRFYETPHIDKLAREGVCFTQSYAACPVSSPSRAALLTGKYPARINLTDYIPGDRAYGPHKNQRLASLPFNLHLSKDEITMAEAFRQNGYSTFMAGKWHLAESAEYYPEQNGFDINIGGNNTGHPSKGYFSPYGNPQLKDGPEGEYLTDRLTDEVIRYISEPKEKPFFVYLSYYTVHLPLQAKAEKIAKYRRKLSRAVPADSSFVKKGETYHKLVQDIPAYAAMVESLDENIGRLLDTLHRSGLDERTIVVFTSDNGGMATSNTTRNIPTSNLPLRAGKGYLYEGGIKVPAIIRWSGHLKGRQVSDTPIIGTDYYPTLLDLCGLPLLPGQHVDGVSMKPVLQGGRLSRPSLFWHYPHYSGGLGGRPSAAIREGDYKLIEFFEDHHVELYNVIQDESEEKDLSQIYPEIADGLRKKLYLWYKEVGARMPVDNPHYVSPVKDSDSFENKLEHHHHHH	not soluble
MKRLKNELNALVNRGVDRHLRLAVTGLSRSGKTAFITAMVNQLLNIHAGARLPLLSAVREERLLGVKRIPQRDFGIPRFTYDEGLAQLYGDPPAWPTPTRGVSEIRLALRYKSNDSLLRHFKDTSTLYLEIVDYPGEWLLDLPMLAQDYLSWSRQMTGLLNGQRGEWSAKWRMMCEGLDPLAPADENRLADIAAAWTDYLHHCKQQGLHFIQPGRFVLPGDMAGAPALQFFPWPDVDAWGESKLAQADKHTNAGMLRERFNYYCEKVVKGFYKNHFLRFDRQIVLVDCLQPLNSGPQAFNDMRLALTQLMQSFHYGQRTLFRRLFSPVIDKLLFAATKADHVTIDQHANMVSLLQQLIQDAWQNAAFEGISMDCLGLASVQATTSGIIDVNGEKIPALRGNRLSDGAPLTVYPGEVPARLPGQAFWDKQGFQFEAFRPQVMDVDKPLPHIRLDAALEFLIGDKLR	not soluble
MKRNGETKRRRNVAEEAEQGEDPAMWENLDRNFRQVQSVLDRNRSLIQQVNDNHQSRMADNMSKNVALIQELNGNISKVVNMYSDLNTSFSSGFHGGKNGHDGGGAAGTRA	soluble
